The values that follow come from patent US20210292423A1 (published 2021).

The target of experiment [1] is T1, human CD3 (TCR complex) on primary human T cells or Jurkat cells (human, UniProt P07766 23-207). Kind of experiment: cell-based or functional assay.
The target of experiment [2] is T2, human CD123 (IL3RA) on cells (human, UniProt P26951 19-378). In words: cell-based or functional assay.
The target of experiment [3] is T3, human CD3ε/δ-Fc fusion protein (soluble recombinant CD3ε/δ complex) (human, UniProt P04234 22-105).
T3 construct: also called huCD3ε/δ; huCD3; not shown: hinge, CH2, CH3 of human IgG with tag
Kind of experiment: SPR Biacore.

For experiment [4], the target named is T4, human CD123 Strep-II tagged Fc-fusion protein (human).
T4 construct: also called human CD123-Fc; recombinant CD123
In words: SPR Biacore. In general terms: Surface plasmon resonance follows binding to a sensor surface in real time, without labels.

The target in experiment [5] is T1, human CD3 (TCR complex) on primary …. In words: cell-based or functional assay. This is another data set of the same source.
For experiment [6], the target named is T3, human CD3ε/δ-Fc fusion protein (soluble …). Kind of experiment: SPR Biacore. The source holds these as a separate data set.
The target in experiment [7] is T4, human CD123 Strep-II tagged Fc-fusion …. Kind of experiment: SPR Biacore. The source holds these as a separate data set.
In experiment [8] the target is T2, human CD123 (IL3RA) on cells. Kind of experiment: cell-based or functional assay. The source holds these as a separate data set.

Read-outs that look alike come from different tables or passages of the source.

T1 sequence (P07766 23-207, one chain of several): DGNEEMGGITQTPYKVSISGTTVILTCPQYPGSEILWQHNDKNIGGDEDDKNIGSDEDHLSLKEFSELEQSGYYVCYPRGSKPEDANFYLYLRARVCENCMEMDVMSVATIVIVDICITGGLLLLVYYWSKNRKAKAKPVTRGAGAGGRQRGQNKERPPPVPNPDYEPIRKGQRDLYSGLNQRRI
T2 sequence (P26951 19-378): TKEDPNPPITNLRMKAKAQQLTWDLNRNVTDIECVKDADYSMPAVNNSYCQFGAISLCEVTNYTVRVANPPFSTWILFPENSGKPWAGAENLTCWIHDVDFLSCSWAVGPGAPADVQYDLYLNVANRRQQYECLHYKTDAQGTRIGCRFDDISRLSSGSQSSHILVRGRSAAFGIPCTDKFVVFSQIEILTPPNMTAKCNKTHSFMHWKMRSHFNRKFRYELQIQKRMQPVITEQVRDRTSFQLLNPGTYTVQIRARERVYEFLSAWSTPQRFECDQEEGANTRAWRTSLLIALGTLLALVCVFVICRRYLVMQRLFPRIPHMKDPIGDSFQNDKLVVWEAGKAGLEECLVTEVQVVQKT
T4 sequence (chain, as listed by the source limits assumed): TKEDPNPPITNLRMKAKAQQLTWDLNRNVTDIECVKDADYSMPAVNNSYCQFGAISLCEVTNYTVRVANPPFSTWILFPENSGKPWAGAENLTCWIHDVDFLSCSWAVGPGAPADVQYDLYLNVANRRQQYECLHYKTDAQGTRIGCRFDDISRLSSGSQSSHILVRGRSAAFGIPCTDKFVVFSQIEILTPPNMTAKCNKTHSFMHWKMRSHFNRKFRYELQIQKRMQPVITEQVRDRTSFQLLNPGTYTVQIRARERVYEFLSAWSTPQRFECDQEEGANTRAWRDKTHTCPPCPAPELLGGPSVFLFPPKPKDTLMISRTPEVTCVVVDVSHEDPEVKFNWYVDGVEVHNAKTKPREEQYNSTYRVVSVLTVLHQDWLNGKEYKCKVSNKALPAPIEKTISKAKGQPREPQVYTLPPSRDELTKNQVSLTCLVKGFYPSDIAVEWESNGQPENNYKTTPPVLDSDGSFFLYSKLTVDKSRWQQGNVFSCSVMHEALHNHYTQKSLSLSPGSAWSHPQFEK
T3 sequence (chain, as listed by the source mutant, chain 1 of 2): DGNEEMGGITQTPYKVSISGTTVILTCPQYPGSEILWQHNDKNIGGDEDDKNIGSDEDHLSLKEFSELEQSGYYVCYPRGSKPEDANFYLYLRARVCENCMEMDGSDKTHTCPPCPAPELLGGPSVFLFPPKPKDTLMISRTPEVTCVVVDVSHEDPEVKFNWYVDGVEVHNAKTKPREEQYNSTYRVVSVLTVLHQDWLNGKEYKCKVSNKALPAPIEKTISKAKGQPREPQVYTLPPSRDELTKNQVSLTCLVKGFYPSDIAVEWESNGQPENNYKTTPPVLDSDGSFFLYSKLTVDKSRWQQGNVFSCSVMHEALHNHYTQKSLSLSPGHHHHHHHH
T3 sequence (P04234 22-105, stated change not applied, chain 2 of 2): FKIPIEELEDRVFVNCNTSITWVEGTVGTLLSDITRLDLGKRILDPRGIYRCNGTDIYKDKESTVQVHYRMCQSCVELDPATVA

B1: CODV-Fab hz20G6xhz7G3 antibody-like binding protein (bispecific antibody)
light: DIVMTQSPDSLAVSLGERATINCESSQSLLNSGNQKNYLTWYQQKPGQPPKPLIYWASTRESGVPDRFSGSGSGTDFTLTISSLQAEDVAVYYCQNDYSYPYTFGQGTKLEIKGGSGSSGSGGDIVMTQTPLSLSVTPGQPASISCKSSQSLVHNNANTYLSWYLQKPGQSPQSLIYKVSNRFSGVPDRFSGSGSGTDFTLKISRVEAEDVGVYYCGQGTQYPFTFGSGTKVEIKGGSGSSGSGGRTVAAPSVFIFPPSDEQLKSGTASVVCLLNNFYPREAKVQWKVDNALQSGNSQESVTEQDSKDSTYSLSSTLTLSKADYEKHKVYACEVTHQGLSSPVTKSFNRGEC
heavy: QVQLVESGGGVVQPGRSLRLSCAASGFTFTKAWMHWVRQAPGKQLEWVAQIKDKSNSYATYYADSVKGRFTISRDDSKNTLYLQMNSLRAEDTAVYYCRGVYYALSPFDYWGQGTLVTVSSEVQLVQSGAEVKKPGESLKISCKGSGYSFTDYYMKWARQMPGKGLEWMGDIIPSSGATFYNQKFKGQVTISADKSISTTYLQWSSLKASDTAMYYCARSHLLRASWFAYWGQGTMVTVSSASTKGPSVFPLAPSSKSTSGGTAALGCLVKDYFPEPVTVSWNSGALTSGVHTFPAVLQSSGLYSLSSVVTVPSSSLGTQTYICNVNHKPSNTKVDKKVEPKSCDKTHTHHHHHH
notes: also called hz20G6xhz7G3 CODV-Fab
Regarding B1, in experiment [1], the “T cell activation with THP-1 target cells, CD4+ T cells (% CD69+ cells) EC50 (pM)” value turned out to be 1.4 pM and the “T cell activation with THP-1 target cells, CD8+ T cells (% CD69+ cells) EC50 (pM)” value was 3.1 pM. Moreover, in experiment [2], the “Cytotoxic assay (THP cells) EC50 [pM]” value was determined as 2.1 pM. The dissociation constant (Kd) – broadly, a measure of binding affinity in units of concentration – in experiment [3] came out at 9 nM. This molecule also came in with a dissociation constant Kd in experiment [4] of 0.2 nM. Also, in experiment [5], the “Jurkat-NFAT-Luc reporter, no target cells, activation at Cmax in relation to max. activation in assay with target cells (%)” value (shortened to “Jurkat-NFAT-Luc reporter, no target cells … (%)”) turned out to be 0.2% and the “Jurkat-NFAT-Luc reporter, with THP1 cells, EC50 (pM)” value (“Jurkat-NFAT-Luc reporter … (pM)” below) is 561 pM.

B2: CODV-Fab-OL1 hz20G6xhz7G3 antibody-like binding protein (bispecific antibody, human IgG1, kappa, L234A L235A)
light: DIVMTQSPDSLAVSLGERATINCESSQSLLNSGNQKNYLTWYQQKPGQPPKPLIYWASTRESGVPDRFSGSGSGTDFTLTISSLQAEDVAVYYCQNDYSYPYTFGQGTKLEIKGGSGSSGSGGDIVMTQTPLSLSVTPGQPASISCKSSQSLVHNNANTYLSWYLQKPGQSPQSLIYKVSNRFSGVPDRFSGSGSGTDFTLKISRVEAEDVGVYYCGQGTQYPFTFGSGTKVEIKGGSGSSGSGGRTVAAPSVFIFPPSDEQLKSGTASVVCLLNNFYPREAKVQWKVDNALQSGNSQESVTEQDSKDSTYSLSSTLTLSKADYEKHKVYACEVTHQGLSSPVTKSFNRGEC
heavy: not shown
chain: GSDKTHTCPPCPAPEAAGGPSVFLFPPKPKDTLMISRTPEVTCVVVDVSHEDPEVKFNWYVDGVEVHNAKTKPREEQYNSTYRVVSVLTVLHQDWLNGKEYKCKVSNKALPAPIEKTISKAKGQPREPQVCTLPPSRDELTKNQVSLSCAVKGFYPSDIAVEWESNGQPENNYKTTPPVLDSDGSFFLVSKLTVDKSRWQQGNVFSCSVMHEALHNHYTQKSLSLSPG
notes: formula I chain, formula III chain and Fc stump (Fc3); also called hz20G6xhz7G3 CODV-Fab-OL1; hz20G6xhz7G3 CODV-OL1
Take B2: in experiment [1], the “T cell activation with THP-1 target cells, CD4+ T cells (% CD69+ cells) EC50 (pM)” value is 1 pM and the “T cell activation with THP-1 target cells, CD8+ T cells (% CD69+ cells) EC50 (pM)” value stood at 3.3 pM. Also, in experiment [3], the Kd is 15 nM. Further, in experiment [5], the “Jurkat-NFAT-Luc reporter, no target cells … (%)” value amounted to 0.4% and the “Jurkat-NFAT-Luc reporter … (pM)” value came to 320 pM.

B3: single chain CD123 × CD3 bi-specific diabody in DART format MGD006 (bispecific antibody)
chain 1: QAVVTQEPSLTVSPGGTVTLTCRSSTGAVTTSNYANWVQQKPGQAPRGLIGGTNKRAPWTPARFSGSLLGGKAALTITGAQAEDEADYYCALWYSNLWVFGGGTKLTVLGGGGSGGGGEVQLVQSGAELKKPGASVKVSCKASGYTFTDYYMKWVRQAPGQGLEWIGDIIPSNGATFYNQKFKGRVTITVDKSTSTAYMELSSLRSEDTAVYYCARSHLLRASWFAYWGQGTLVTVSSGGCGGGEVAALEKEVAALEKEVAALEKEVAALEK
chain 2: DFVMTQSPDSLAVSLGERVTMSCKSSQSLLNSGNQKNYLTWYQQKPGQPPKLLIYWASTRESGVPDRFSGSGSGTDFTLTISSLQAEDVAVYYCQNDYSYPYTFGQGTKLEIKGGGSGGGGEVQLVESGGGLVQPGGSLRLSCAASGFTFSTYAMNWVRQAPGKGLEWVGRIRSKYNNYATYYADSVKDRFTISRDDSKNSLYLQMNSLKTEDTAVYYCVRHGNFGNSYVSWFAYWGQGTLVTVSSGGCGGGKVAALKEKVAALKEKVAALKEKVAALKE
notes: two chains covalently bonded by a disulfide bond; also called Single chain antibody DART format MGD006
For the molecule B3, in experiment [1], the “T cell activation with THP-1 target cells, CD4+ T cells (% CD69+ cells) EC50 (pM)” value came out at 1 pM and the “T cell activation with THP-1 target cells, CD8+ T cells (% CD69+ cells) EC50 (pM)” value came out at 3.5 pM. Besides, the “Cytotoxic assay (THP cells) EC50 [pM]” value in experiment [2] is 0.3 pM. Further, in experiment [3], the Kd was determined as 9 nM. Besides, the affinity in experiment [4], expressed as Kd, was 0.2 nM. In addition, in experiment [5], the “Jurkat-NFAT-Luc reporter, no target cells … (%)” value was found to be 25.1% and the “Jurkat-NFAT-Luc reporter … (pM)” value amounted to 370 pM.

B4: CODV-Fab hz20G6x7G3 antibody-like binding protein (bispecific antibody)
light: DFVMTQSPSSLTVTAGEKVTMSCKSSQSLLNSGNQKNYLTWYLQKPGQPPKLLIYWASTRESGVPDRFTGSGSGTDFTLTISSVQAEDLAVYYCQNDYSYPYTFGGGTKLEIKGQPKAAPDIVMTQTPLSLSVTPGQPASISCKSSQSLVHNNGNTYLSWYLQKPGQSPQSLIYKVSNRFSGVPDRFSGSGSGTDFTLKISRVEAEDVGVYYCGQGTQYPFTFGSGTKVEIKTKGPSRTVAAPSVFIFPPSDEQLKSGTASVVCLLNNFYPREAKVQWKVDNALQSGNSQESVTEQDSKDSTYSLSSTLTLSKADYEKHKVYACEVTHQGLSSPVTKSFNRGEC
heavy: QVQLVESGGGVVQPGRSLRLSCAASGFTFTKAWMHWVRQAPGKQLEWVAQIKDKSNSYATYYADSVKGRFTISRDDSKNTLYLQMNSLRAEDTAVYYCRGVYYALSPFDYWGQGTLVTVSSSEVQLQQSGPELVKPGASVKMSCKASGYTFTDYYMKWVKQSHGKSLEWIGDIIPSNGATFYNQKFKGKATLTVDRSSSTAYMHLNSLTSEDSAVYYCTRSHLLRASWFAYWGQGTLVTVSARTASTKGPSVFPLAPSSKSTSGGTAALGCLVKDYFPEPVTVSWNSGALTSGVHTFPAVLQSSGLYSLSSVVTVPSSSLGTQTYICNVNHKPSNTKVDKKVEPKSCDKTHTHHHHHH
notes: also called hz20G6 × 7G3 CODV-Fab
For the molecule B4, the Kd in experiment [6] is 5 nM; in experiment [7], 0.6 nM. For the same molecule, the “Cytotoxic assay (THP cells) EC50 [pM]” value in experiment [8] was found to be 30.9 pM.

B5: CODV-Fab 7G3xhz4B4 antibody-like binding protein (bispecific antibody)
light: DVVMTQTPVSLSVSVGGRVSISCRSSQSLVHDNGNTYLSWSLQKPGKSPKVLIYKVSNRFSGVSSRFTGSGSGTDFTLKISSVQPDDLGVYYCGQGTQYPFTFGSGTKLEIKGQPKAAPDFVMTQSPSSLTVTAGEKVTMSCKSSQSLLNSGNQKNYLTWYLQKPGQPPKLLIYWASTRESGVPDRFTGSGSGTDFTLTISSVQAEDLAVYYCQNDYSYPYTFGGGTKLEIKTKGPSRTVAAPSVFIFPPSDEQLKSGTASVVCLLNNFYPREAKVQWKVDNALQSGNSQESVTEQDSKDSTYSLSSTLTLSKADYEKHKVYACEVTHQGLSSPVTKSFNRGEC
heavy: EVQLQQSGPELVKPGASVKMSCKASGYTFTDYYMKWVKQSHGKSLEWIGDIIPSNGATFYNQKFKGKATLTVDRSSSTAYMHLNSLTSEDSAVYYCTRSHLLRASWFAYWGQGTLVTVSASQVQLVETGGGLVKPGQSLKLTCATSGFTFSNAWMHWVRQSPEKGLEWVAQIKARSNNYATYYAESVKGRFTISRDDSKSTIYLQMNSLTPEDTAIYYCRGTYYASKPFDYWGQGVMVTVSSRTASTKGPSVFPLAPSSKSTSGGTAALGCLVKDYFPEPVTVSWNSGALTSGVHTFPAVLQSSGLYSLSSVVTVPSSSLGTQTYICNVNHKPSNTKVDKKVEPKSCDKTHTHHHHHH
notes: also called 7G3 × hz4B4 CODV-Fab
In the case of B5, the values for the Kd in experiment [6] and in experiment [7] were 5.4 nM and 0.1 nM, respectively. For the same molecule, the “Cytotoxic assay (THP cells) EC50 [pM]” value in experiment [8] worked out at 26.7 pM.

B6: CODV-Fab-TL1 hz20G6xhz7G3 antibody-like binding protein (bispecific antibody, human IgG1, kappa, L234A L235A)
light: DIVMTQSPDSLAVSLGERATINCESSQSLLNSGNQKNYLTWYQQKPGQPPKPLIYWASTRESGVPDRFSGSGSGTDFTLTISSLQAEDVAVYYCQNDYSYPYTFGQGTKLEIKGGSGSSGSGGDIVMTQTPLSLSVTPGQPASISCKSSQSLVHNNANTYLSWYLQKPGQSPQSLIYKVSNRFSGVPDRFSGSGSGTDFTLKISRVEAEDVGVYYCGQGTQYPFTFGSGTKVEIKGGSGSSGSGGRTVAAPSVFIFPPSDEQLKSGTASVVCLLNNFYPREAKVQWKVDNALQSGNSQESVTEQDSKDSTYSLSSTLTLSKADYEKHKVYACEVTHQGLSSPVTKSFNRGECDKTHTCPPCPAPEAAGGPSVFLFPPKPKDTLMISRTPEVTCVVVDVSHEDPEVKFNWYVDGVEVHNAKTKPREEQYNSTYRVVSVLTVLHQDWLNGKEYKCKVSNKALPAPIEKTISKAKGQPREPQVYTLPPSRDELTKNQVSLTCLVKGFYPSDIAVEWESNGQPENNYKTTPPVLDSDGSFFLYSKLTVDKSRWQQGNVFSCSVMHEALHNRFTQKSLSLSPG
heavy: not shown
notes: one chain of formula IV and one of formula III, IgG1 backbone; also called hz20G6xhz7G3 CODV-Fab-TL1
With B6, in experiment [1], the “T cell activation with THP-1 target cells, CD4+ T cells (% CD69+ cells) EC50 (pM)” value is 3.2 pM and the “T cell activation with THP-1 target cells, CD8+ T cells (% CD69+ cells) EC50 (pM)” value came to 9.9 pM. The “Cytotoxic assay (THP cells) EC50 [pM]” value in experiment [2] stood at 1 pM. In addition, the Kd in experiment [3] was found to be 11 nM. The molecule further registered a Kd in experiment [4] of 0.2 nM. In experiment [5], the “Jurkat-NFAT-Luc reporter, no target cells … (%)” value amounted to 0.4% and the “Jurkat-NFAT-Luc reporter … (pM)” value was found to be 444 pM.
